Source: article PMC8298602, “14-3-3-protein regulates Nedd4-2 by modulating interactions between HECT and WW domains” (Communications Biology, 2021)

T1: 14-3-3η (Homo sapiens, UniProt Q04917)
T1 sequence (Q04917 1-246): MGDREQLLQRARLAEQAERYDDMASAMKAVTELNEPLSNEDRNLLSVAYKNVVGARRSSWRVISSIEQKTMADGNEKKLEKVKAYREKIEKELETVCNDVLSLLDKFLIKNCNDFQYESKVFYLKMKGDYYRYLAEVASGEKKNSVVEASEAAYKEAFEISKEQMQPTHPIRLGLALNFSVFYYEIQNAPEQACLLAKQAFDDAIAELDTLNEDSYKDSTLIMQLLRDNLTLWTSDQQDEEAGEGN


Key:
[1] = test system: all human 14-3-3 protein isoforms; assay: native TBE-PAGE isoform binding specificity; conditions: 12% TBE-PAGE, 128 pmol 14-3-3 and 64 pmol pNedd4-2^335–455
Method: In addition, we prepared pNedd4-2^335–455 to characterize 14-3-3 isoform binding specificity.
Supplementary Fig. S2. Characterization of the interaction between Nedd4-2 and 14-3-3 in solution. a Continuous sedimentation coefficient distributions (c(s)) of 10 μM pNedd4- […]
mixed at 1:2 (cyan) and 1:1 (green) molar ratios. The protein concentrations were 10 μM for 14335-455 335-455-3-3ε and 5 μM or 10 μM for pNedd4335-455 -2 . b Isoform binding specificity of pNedd4-2 .
Phosphorylated pNedd4-2 , 14-3-3 proteins and their complexes were separated by 12% TBE-PAGE to study the interaction of pNedd4-2335-455 with all seven human 14-3-3 isoforms (β, γ, ε, δ, ε, σ, and τ). The amounts of protein loaded on the native gel were 128 pmol of 14335-455 -3-3 and […]
(1 picture or pasted object on this page, not shown here)

[2] = SV-AUC continuous sedimentation coefficient distributions c(s); type: physicochemical
Method: (§1) Sedimentation velocity (SV) experiments were performed using a ProteomLab^TM XL-I, Beckman Coulter analytical ultracentrifuge. The samples were dialyzed against a buffer containing 20 mM Tris-HCl (pH 7.5), 150 mM NaCl, and 1 mM TCEP before analysis. The samples with the longer construct of Nedd4-2^186–975 were dialyzed against a buffer containing 50 mM Tris-HCl (pH 8.0), 500 mM NaCl, 1 mM TCEP and 0.01% (v/v) Tergitol NP-40 (Sigma). […] The buffer density, viscosity, and partial specific volume of all proteins were estimated using the program […]. All sedimentation profiles were collected with absorbance optics at 280 nm. The sedimentation coefficients c(s) distributions were calculated from raw data using the SEDFIT software package. The calculated distributions were integrated to establish the weight-average sedimentation coefficients corrected to 20 °C and the density of water, sw(20,w). The sw values were plotted as a function of Nedd4-2^355–455 or 14-3-3η concentration to construct sw isotherms. The resulting isotherms were fitted with a A + B ⇌ AB model, as implemented in the SEDPHAT software package with previously known sw values of each component. The parameters were verified, and the loading concentrations were corrected using global Lamm-equation modeling, also implemented in the SEDPHAT software[66]

14-3-3η [3] = molecular target: T1, 14-3-3η; assay: SV-AUC (sedimentation velocity analytical ultracentrifugation), sw isotherm binding analysis; conditions: 300 nM pNedd4-2^186–975 with 0.06−6 μM 14-3-3η, A + B ⇌ AB (Langmuir) model, one pNedd4-2 per 14-3-3η dimer, 50 mM Tris-HCl pH 8.0, 500 mM NaCl, 1 mM TCEP, 0.01% Tergitol NP-40, 20 °C, read-out: apparent KD
Method: Solution properties of Nedd4-2^186–975 and its interactions with 14-3-3 were characterized by sedimentation velocity analytical ultracentrifugation (SV AUC).
as §1, with “The sw values were plotted as a function of Nedd4-2^355–455 or 14-3-3η concentration to construct sw isotherms.” left out

14-3-3η [4] = molecular target: T1, 14-3-3η; assay: native TBE-PAGE complex formation with 14-3-3η; type: binding; conditions: 12% native TBE-PAGE, 240 pmol 14-3-3η and 120 pmol Nedd4-2 variant
Method: Based on our estimates, the KD value was lower than 50 nM, as further confirmed by global modeling. TEXT PRINTED IN THE PICTURE: (d) no label printed: KD < 50 nM
Fig. 3 Simultaneous phosphorylation of two 14-3-3 binding motifs pSer342 and pSer448 is required for tight complex formation between pNedd4-2^335–455 and 14-3-3η. a 12% Native TBE-PAGE showing the interaction between 14-3-3η (240 pmol) and Nedd^335–455 variants without (no pS) or with one, two or three phosphorylation sites (120 pmol); 14-3-3η protein alone was loaded on the penultimate lane. b–i Sedimentation velocity analytical ultracentrifugation analysis of the complexes between 14-3-3η and pNedd4-2^335–455 variants showing the sw isotherms of 14-3-3η and Nedd4-2 with all three phosphorylation sites pSer^342 + pThr^367 + pSer^448 (b), with no phosphorylation sites (c), with one phosphorylation site (pSer^342 (d), pThr^367 (e) and pSer^448 (f)), or with two phosphorylation sites (pSer^342 + pThr^367 (g), pSer^342 + pSer^448 (h) and pThr^367 + pSer^448 (i)). […] The c(s) distributions underlying the sw data points are shown in Supplementary Fig. S3.

[5] = SEC-SAXS structural parameters; type: physicochemical; conditions: for Rg (Guinier approximation): 20 mM Tris-HCl pH 7.5, 150 mM NaCl, 1 mM TCEP, 3% glycerol
Method: SAXS data were collected on the European Molecular Biology Laboratory (EMBL) P12 beamline, at the storage ring PETRA III (Deutsches Elektronen Synchrotron (DESY), Hamburg, Germany). The SEC-SAXS measurements were conducted in a buffer containing 20 mM Tris-HCl (pH 7.5), 150 mM NaCl, 1 mM TCEP, 3% (w/v) glycerol using Superdex 200 Increase 5/150 GL column (GE Healthcare) at the flow rate 0.5 ml.min^−1 at 293.15 K.
The loading concentrations of the samples were 2.2 mg.ml^−1 for Nedd4-2^186–975, 2 mg.ml^−1 for 14-3-3η and 8.9 mg.ml^−1 for the Nedd4-2^186–975:14-3-3η complex (1:2 molar stoichiometry). The injection volume of the samples was 52 μl. Elution profiles with the corresponding frames were processed using ATSAS 3.0.2 software CHROMIXS[71]. ATSAS software PRIMUS and GNOM were used to determine the excluded volume of the hydrated particle (Vp), the radius of gyration (Rg) and maximum particle dimension (Dmax)[72],[73]. The molecular mass (MW) was determined using a methods described by Rambo et al.[74]. Scattering profiles, P(r) functions, normalized Kratky plots and Guinier approximations were visualized using GraphPad Prism version 8.0.1 for Windows (GraphPad Software, La Jolla California USA, www.graphpad.com). The program DAMMIF was used to calculate the ab inicio molecular envelopes. For the complex, 10 surfaces were generated in slow mode and averaged using DAMAVER[76]. The averaged surfaces were used as the final filtered model of the complex, which was superimposed to the structural model using the SUPCOMB program (EMBL, Hamburg, Germany)[77].

[6] = frames from the right side of the elution peak
[7] = frames from the top of the elution peak

Molecule	complex formation on native TBE-PAGE, all isoforms [1]	f/f0 ([2]; SV-AUC c(s) analysis)	weight-averaged sedimentation coefficient sw(20,w), unit not given ([2]; corrected to 20.0 °C and density of water) [S]	Kd (14-3-3η [3]) [nM]	complex formation on native TBE-PAGE (14-3-3η [4])	Dmax [5, 6] [nm]	Rg (GNOM) [5, 6] [nm]	VP (Porod volume) [5, 6] [nm^3]	Rg (Guinier approximation) [5, 6] [nm]	Dmax [5, 7] [nm]	Rg (GNOM) [5, 7] [nm]	VP (Porod volume) [5, 7] [nm^3]	Rg (Guinier approximation) [5, 7] [nm]	maximum particle dimension Dmax ([5]; from P(r) functions) [Å]
pNedd4-2^335–455: shorter Nedd4-2 variant missing both the C2 and the HECT domains, all three phosphorylation sites (protein, phosphoserine at 342, phosphothreonine at 367, phosphoserine at 448; left off: His6, N-terminal, cleaved | GB1 domain of protein G, N-terminal, cleaved, shorter Nedd4-2 variant missing both the C2 and the HECT domains, all three phosphorylation sites) SSRLRSCSVTDAVAEQGHLPPPSAPAGRARSSTVTGGEEPTPSVAYVHTTPGLPSGWEERKDAKGRTYYVNHNNRTTTWTRPIMQLAEDGASGSATNSNNHLIEPQIRRPRSLSSPTVTLS	forms stable complexes	1.5	1.4											
Nedd4-2^186–975: N-terminally truncated human Nedd4-2, missing the C2 domain (protein, phosphoserine at 342, phosphothreonine at 367, phosphoserine at 448 (PKA in vitro, confirmed by LC-MS); left off: His6, C-terminal, kept, N-terminally truncated human Nedd4-2, missing the C2 domain) HQEELPPPPLPPGWEEKVDNLGRTYYVNHNNRTTQWHRPSLMDVSSESDNNIRQINQEAAHRRFRSRRHISEDLEPEPSEGGDVPEPWETISEEVNIAGDSLGLALPPPPASPGSRTSPQELSEELSRRLQITPDSNGEQFSSLIQREPSSRLRSCSVTDAVAEQGHLPPPSAPAGRARSSTVTGGEEPTPSVAYVHTTPGLPSGWEERKDAKGRTYYVNHNNRTTTWTRPIMQLAEDGASGSATNSNNHLIEPQIRRPRSLSSPTVTLSAPLEGAKDSPVRRAVKDTLSNPQSPQPSPYNSPKPQHKVTQSFLPPGWEMRIAPNGRPFFIDHNTKTTTWEDPRLKFPVHMRSKTSLNPNDLGPLPPGWEERIHLDGRTFYIDHNSKITQWEDPRLQNPAITGPAVPYSREFKQKYDYFRKKLKKPADIPNRFEMKLHRNNIFEESYRRIMSVKRPDVLKARLWIEFESEKGLDYGGVAREWFFLLSKEMFNPYYGLFEYSATDNYTLQINPNSGLCNEDHLSYFTFIGRVAGLAVFHGKLLDGFFIRPFYKMMLGKQITLNDMESVDSEYYNSLKWILENDPTELDLMFCIDEENFGQTYQVDLKPNGSEIMVTNENKREYIDLVIQWRFVNRVQKQMNAFLEGFTELLPIDLIKIFDENELELLMCGLGDVDVNDWRQHSIYKNGYCPNHPVIQWFWKAVLLMDAEKRIRLLQFVTGTSRVPMNGFAELYGSNGPQLFTIEQWGSPEKLPRAHTCFNRLDLPPYETFEDLREKLLMAVENAQGFEGVD				~50	phosphorylation-dependent interaction	16.9	4.54 ± 0.02	192	4.39 ± 0.02	18.3	4.92 ± 0.01	218	4.67 ± 0.01	169
